Assay in all cases: thioesterase assay, Lineweaver-Burk plot
The target of data set [1] is T1, TesA (Corynebacterium glutamicum, UniProt Q8NMW3).
T1 construct: gene Cgl2451; full length in pET-28a(+), His-tag (Ni-NTA), E. coli BL21(DE3); forward primer encodes MAANN start; TE1 family
T1 sequence (Q8NMW3 1-155): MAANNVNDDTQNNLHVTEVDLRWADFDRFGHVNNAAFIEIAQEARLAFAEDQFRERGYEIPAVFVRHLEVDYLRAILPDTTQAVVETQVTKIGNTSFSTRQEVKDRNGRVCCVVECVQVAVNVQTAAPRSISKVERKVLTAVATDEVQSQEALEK
The class given is biochemical. Conditions: optimal substrate; assay conditions of the kinetics not stated (optimum 30 °C, pH 8.0). The source says: thioesterase assay, Lineweaver-Burk plot on TesA | of TesA estimated through fitting to the Michaelis–Menten equation

Substrate in data set [2]: CCCCCCCC(=O)SCCNC(=O)CCNC(=O)[C@H](O)C(C)(C)COP(=O)(O)OP(=O)(O)OC[C@H]1O[C@@H](n2cnc3c(N)ncnc32)[C@H](O)[C@@H]1OP(=O)(O)O
It is filed as biochemical, Corynebacterium glutamicum. The following applies: optimal substrate, assay conditions of the kinetics not stated (optimum 30 °C, pH 8.0), authors' other TesB properties (Fig. 5) come from their previous studies.

Substrate in data set [3]: CC(=O)SCCNC(=O)CCNC(=O)[C@H](O)C(C)(C)COP(=O)(O)OP(=O)(O)OC[C@H]1O[C@@H](n2cnc3c(N)ncnc32)[C@H](O)[C@@H]1OP(=O)(O)O
It is filed as biochemical, Corynebacterium glutamicum. Conditions: optimal substrate, assay conditions of the kinetics not stated (optimum 30 °C, pH 9.0).

As usually defined, the Km is the substrate concentration at which the rate is half of its maximum.

As for `CCCCCCCCCCCC(=O)SCCNC(=O)CCNC(=O)[C@H](O)C(C)(C)COP(=O)(O)OP(=O)(O)OC[C@H]1O[C@@H](n2cnc3c(N)ncnc32)[C@H](O)[C@@H]1OP(=O)(O)O` [C12, lauroyl-CoA], the Km in data set [1] is 1380 µM.

B1: TesB (Corynebacterium glutamicum ATCC 13032) (protein)
chain: MKTIEDILTLEEIDRDIYRGPVIESYLARTFGGQVAAQALVAATHTVDKAFTVHSLHGYFIAPGDPTAPAIYLVDRVRDGKSYVTRSVRGIQDGEVIFSMQASFHRGDEGIEHMDKMRKVPAPDEIKGTVERMPISSRRVLDEWAEWDIRVIPQDQLELSDFTATEQAVWIRCTADLPDNPTFHQCSLTYLSDMTLLHSALVPHPGEKMQMASLDHAVWFLRPFRVDEWLLYDQRSPSASSGRALTHGRLFNQQGDLVAIVNQEGMTRTLHEGAQSIPMRKD
notes: full length in pET-28a(+), His-tag (Ni-NTA), E. coli BL21(DE3); forward primer encodes MKTIE start; TE4 family
B1: in data set [2], the Km was found to be 5450 µM.

B2: TE9 (Corynebacterium glutamicum ATCC 13032) (protein)
chain: MFLTLSGADMSALIKGSGPHHVVVLNGWFGHAAGWGAFADYLDLGNYTWHFWDYRGYGNRKDDAGEFTLEEISADIVAYIDSIEAEKVSILGHSMGGVFMQKVLADSATPIASLVGISAVAAAGTPFDEDSRKLFTSAGHNPDSRRAIIDFTSGSRQPAAWLDDLTDSTVQNSTPEAVEKYFFAWADCNFAADLGTQDLPVYILTGDLDPAVTKTAVESAFGPIYQNLTVEELHDVGHYAIFEHPLGLAARVLRFLDAV
notes: full length in pET-28a(+), His-tag (Ni-NTA), E. coli BL21(DE3); forward primer encodes MFLTL start
As to B2, the Km in data set [3] turned out to be 1810 µM.
